Measured values from publication PMC2187830 (The Journal of Experimental Medicine, 1990).

Assays:
murine IL-7 receptor [1] = target: T1, murine IL-7 receptor (mouse (endogenous in IxN/2b), UniProt P16872 21-459); assay: radioligand binding
T1 sequence: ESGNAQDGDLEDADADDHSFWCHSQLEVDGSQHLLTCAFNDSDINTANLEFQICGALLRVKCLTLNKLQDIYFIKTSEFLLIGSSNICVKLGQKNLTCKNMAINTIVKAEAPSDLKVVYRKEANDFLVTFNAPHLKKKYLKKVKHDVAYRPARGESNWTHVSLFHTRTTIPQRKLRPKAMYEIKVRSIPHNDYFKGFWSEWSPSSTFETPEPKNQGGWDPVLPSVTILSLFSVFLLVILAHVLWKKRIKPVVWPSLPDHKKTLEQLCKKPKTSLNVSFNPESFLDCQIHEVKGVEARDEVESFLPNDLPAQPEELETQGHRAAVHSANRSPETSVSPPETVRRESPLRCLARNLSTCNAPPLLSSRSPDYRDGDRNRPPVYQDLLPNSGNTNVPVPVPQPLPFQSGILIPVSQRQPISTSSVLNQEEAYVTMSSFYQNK

murine IL-7 receptor [2] = target: T1, murine IL-7 receptor; assay: radioligand binding; remark: listed apart in the source

B1: 125I-labeled recombinant murine IL-7 (ligand)
chain: ECHIKDKEGKAYESVLMISIDELDKMTGTDSNCPNNEPNFFRKHVCDDTKEAAFLNRAARKLKQFLKMNISEEFNVHLLTVSQGTQTLVNCTSKEEKNVKEQKKNDACFLKRLLREIKTCWNKILKGSI
modifications: 125I on the single tyrosine residue (amino acid 12), nearly quantitatively radiolabeled
Murine IL-7 receptor [1]
  apparent Ka, high affinity component: 1.2e+10 M⁻¹
Murine IL-7 receptor [2]
  apparent Ka, low affinity component: 4.8e+08 M⁻¹
